# Source: patent US20180155451A1 (published 2018)
# Target: T1, FcγRIa (human, UniProt P12314 16-292)
# T1 construct: extracellular domain; also called FcgRI; CD64; not shown: C-terminal His tag
# Assay: SPR (Biacore), antibody captured on antigen peptide chip, FcγRIa as analyte; relative binding amount
# Protocol: Analysis of interaction between objective antibody and the FcγR was carried out using Biacore T100 (GE Healthcare). HBS-EP+ (GE Healthcare) was used as the running buffer, and the measurement temperature was set to 25° C. Chips produced by immobilizing the antigen peptide by the amine coupling method to a Series S Sencor Chip CM5 (GE Healthcare), or alternatively, chips produced by allowing preliminarily biotinylated antigen peptides to interact with and immobilize onto a Series S Sensor Chip SA (certified) (GE Healthcare) were used. Antibodies of interest were captured onto an antigen peptide-immobilized chip, and allowed to interact to each FcγR diluted with running buffer. To regenerate and repeatedly use the chip, the antibodies captured on the chip were washed off by reacting 10 mM glycine-HCl, pH 1.5.
# T1 sequence (P12314 16-292): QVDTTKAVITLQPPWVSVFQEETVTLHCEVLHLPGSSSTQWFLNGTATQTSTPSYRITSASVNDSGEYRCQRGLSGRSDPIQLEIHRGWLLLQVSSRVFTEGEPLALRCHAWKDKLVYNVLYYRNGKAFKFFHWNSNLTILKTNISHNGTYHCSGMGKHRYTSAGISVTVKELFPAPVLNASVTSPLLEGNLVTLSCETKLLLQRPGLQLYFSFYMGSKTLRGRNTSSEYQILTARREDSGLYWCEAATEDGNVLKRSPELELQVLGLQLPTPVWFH
row,Binder,Ho/Con_1a
1,"GpH7-B3 variant Y296_20W/GpL16-k0 (antibody, human IgG1, kappa, homodimerized IgG1; mutation in both H chains; also called Ho Ab) heavy: not shown light: DIVMTQSPLSLPVTPGEPASISCQASESLVHSNRNTYLHWYLQKPGQSPQLLIYKVSNRFSGVPDRFSGSGSGTDFTLKISRVEAEDVGVYYCSQNTHVPPTFGQGTKVEIERTVAAPSVFIFPPSDEQLKSGTASVVCLLNNFYPREAKVQWKVDNALQSGNSQESVTEQDSKDSTYSLSSTLTLSKADYEKHKVYACEVTHQGLSSPVTKSFNRGEC",106 % of control (GpH7-B3/GpL16-k0 = 100)
2,"GpH7-B3 variant Y296_13S/GpL16-k0 (antibody, human IgG1, kappa, homodimerized IgG1; mutation in both H chains; also called Ho Ab) heavy: not shown light: DIVMTQSPLSLPVTPGEPASISCQASESLVHSNRNTYLHWYLQKPGQSPQLLIYKVSNRFSGVPDRFSGSGSGTDFTLKISRVEAEDVGVYYCSQNTHVPPTFGQGTKVEIERTVAAPSVFIFPPSDEQLKSGTASVVCLLNNFYPREAKVQWKVDNALQSGNSQESVTEQDSKDSTYSLSSTLTLSKADYEKHKVYACEVTHQGLSSPVTKSFNRGEC",105 % of control (GpH7-B3/GpL16-k0 = 100)
3,"GpH7-B3 variant Y296_06M/GpL16-k0 (antibody, human IgG1, kappa, homodimerized IgG1; mutation in both H chains; also called Ho Ab) heavy: not shown light: DIVMTQSPLSLPVTPGEPASISCQASESLVHSNRNTYLHWYLQKPGQSPQLLIYKVSNRFSGVPDRFSGSGSGTDFTLKISRVEAEDVGVYYCSQNTHVPPTFGQGTKVEIERTVAAPSVFIFPPSDEQLKSGTASVVCLLNNFYPREAKVQWKVDNALQSGNSQESVTEQDSKDSTYSLSSTLTLSKADYEKHKVYACEVTHQGLSSPVTKSFNRGEC",104 % of control (GpH7-B3/GpL16-k0 = 100)
4,"GpH7-B3 variant Y296_12R/GpL16-k0 (antibody, human IgG1, kappa, homodimerized IgG1; mutation in both H chains; also called Ho Ab) heavy: not shown light: DIVMTQSPLSLPVTPGEPASISCQASESLVHSNRNTYLHWYLQKPGQSPQLLIYKVSNRFSGVPDRFSGSGSGTDFTLKISRVEAEDVGVYYCSQNTHVPPTFGQGTKVEIERTVAAPSVFIFPPSDEQLKSGTASVVCLLNNFYPREAKVQWKVDNALQSGNSQESVTEQDSKDSTYSLSSTLTLSKADYEKHKVYACEVTHQGLSSPVTKSFNRGEC",103 % of control (GpH7-B3/GpL16-k0 = 100)
5,"GpH7-B3 variant Y296_18N/GpL16-k0 (antibody, human IgG1, kappa, homodimerized IgG1; mutation in both H chains; also called Ho Ab) heavy: not shown light: DIVMTQSPLSLPVTPGEPASISCQASESLVHSNRNTYLHWYLQKPGQSPQLLIYKVSNRFSGVPDRFSGSGSGTDFTLKISRVEAEDVGVYYCSQNTHVPPTFGQGTKVEIERTVAAPSVFIFPPSDEQLKSGTASVVCLLNNFYPREAKVQWKVDNALQSGNSQESVTEQDSKDSTYSLSSTLTLSKADYEKHKVYACEVTHQGLSSPVTKSFNRGEC",105 % of control (GpH7-B3/GpL16-k0 = 100)
6,"GpH7-B3 variant Y296_19Q/GpL16-k0 (antibody, human IgG1, kappa, homodimerized IgG1; mutation in both H chains; also called Ho Ab) heavy: not shown light: DIVMTQSPLSLPVTPGEPASISCQASESLVHSNRNTYLHWYLQKPGQSPQLLIYKVSNRFSGVPDRFSGSGSGTDFTLKISRVEAEDVGVYYCSQNTHVPPTFGQGTKVEIERTVAAPSVFIFPPSDEQLKSGTASVVCLLNNFYPREAKVQWKVDNALQSGNSQESVTEQDSKDSTYSLSSTLTLSKADYEKHKVYACEVTHQGLSSPVTKSFNRGEC",104 % of control (GpH7-B3/GpL16-k0 = 100)
7,"GpH7-B3 variant T335_20W/GpL16-k0 (antibody, human IgG1, kappa, homodimerized IgG1; mutation in both H chains; also called Ho Ab) heavy: not shown light: DIVMTQSPLSLPVTPGEPASISCQASESLVHSNRNTYLHWYLQKPGQSPQLLIYKVSNRFSGVPDRFSGSGSGTDFTLKISRVEAEDVGVYYCSQNTHVPPTFGQGTKVEIERTVAAPSVFIFPPSDEQLKSGTASVVCLLNNFYPREAKVQWKVDNALQSGNSQESVTEQDSKDSTYSLSSTLTLSKADYEKHKVYACEVTHQGLSSPVTKSFNRGEC",104 % of control (GpH7-B3/GpL16-k0 = 100)

# Second part, the binder after the results:
row,Ho/Con_1a,Binder
1,112 % of control (GpH7-B3/GpL16-k0 = 100),"GpH7-B3 variant Y300_03V/GpL16-k0 (antibody, human IgG1, kappa, homodimerized IgG1; mutation in both H chains; also called Ho Ab) heavy: not shown light: DIVMTQSPLSLPVTPGEPASISCQASESLVHSNRNTYLHWYLQKPGQSPQLLIYKVSNRFSGVPDRFSGSGSGTDFTLKISRVEAEDVGVYYCSQNTHVPPTFGQGTKVEIERTVAAPSVFIFPPSDEQLKSGTASVVCLLNNFYPREAKVQWKVDNALQSGNSQESVTEQDSKDSTYSLSSTLTLSKADYEKHKVYACEVTHQGLSSPVTKSFNRGEC"
2,111 % of control (GpH7-B3/GpL16-k0 = 100),"GpH7-B3 variant Y300_09D/GpL16-k0 (antibody, human IgG1, kappa, homodimerized IgG1; mutation in both H chains; also called Ho Ab) heavy: not shown light: DIVMTQSPLSLPVTPGEPASISCQASESLVHSNRNTYLHWYLQKPGQSPQLLIYKVSNRFSGVPDRFSGSGSGTDFTLKISRVEAEDVGVYYCSQNTHVPPTFGQGTKVEIERTVAAPSVFIFPPSDEQLKSGTASVVCLLNNFYPREAKVQWKVDNALQSGNSQESVTEQDSKDSTYSLSSTLTLSKADYEKHKVYACEVTHQGLSSPVTKSFNRGEC"
3,101 % of control (GpH7-B3/GpL16-k0 = 100),"GpH7-B3 variant Y300_11K/GpL16-k0 (antibody, human IgG1, kappa, homodimerized IgG1; mutation in both H chains; also called Ho Ab) heavy: not shown light: DIVMTQSPLSLPVTPGEPASISCQASESLVHSNRNTYLHWYLQKPGQSPQLLIYKVSNRFSGVPDRFSGSGSGTDFTLKISRVEAEDVGVYYCSQNTHVPPTFGQGTKVEIERTVAAPSVFIFPPSDEQLKSGTASVVCLLNNFYPREAKVQWKVDNALQSGNSQESVTEQDSKDSTYSLSSTLTLSKADYEKHKVYACEVTHQGLSSPVTKSFNRGEC"
4,111 % of control (GpH7-B3/GpL16-k0 = 100),"GpH7-B3 variant Y300_06M/GpL16-k0 (antibody, human IgG1, kappa, homodimerized IgG1; mutation in both H chains; also called Ho Ab) heavy: not shown light: DIVMTQSPLSLPVTPGEPASISCQASESLVHSNRNTYLHWYLQKPGQSPQLLIYKVSNRFSGVPDRFSGSGSGTDFTLKISRVEAEDVGVYYCSQNTHVPPTFGQGTKVEIERTVAAPSVFIFPPSDEQLKSGTASVVCLLNNFYPREAKVQWKVDNALQSGNSQESVTEQDSKDSTYSLSSTLTLSKADYEKHKVYACEVTHQGLSSPVTKSFNRGEC"
